The results in this text go back to PMC1635305 (Nucleic Acids Research, 2006).

For orientation: stoichiometry N means the number of molecules, sites or subunits per partner or assembly.

Data set [1] concerns the molecule itself. Put plainly: negative-stain electron microscopy single-particle reconstruction.
Data set [2] deals with the molecule itself. Described as above. This is another data set of the same source.

Like-named read-outs stand apart in the source and are kept apart here.

B1: Methanothermobacter thermautotrophicus MCM (natural protein, UniProt O27798 1-666, looked up)
chain: MMKTVDKSKTLTKFEEFFSLQDYKDRVFEAIEKYPNVRSIEVDYLDLEMFDPDLADLLIEKPDDVIRAAQQAIRNIDRLRKNVDLNIRFSGISNVIPLRELRSKFIGKFVAVDGIVRKTDEIRPRIVKAVFECRGCMRHHAVTQSTNMITEPSLCSECGGRSFRLLQDESEFLDTQTLKLQEPLENLSGGEQPRQITVVLEDDLVDTLTPGDIVRVTGTLRTVRDERTKRFKNFIYGNYTEFLEQEFEELQISEEDEEKIKELAGDPNIYEKIIRSTAPSIHGYREVKEAIALQLFGGTGKELDDKTRLRGDIHILIVGDPGIGKSQMLKYVSKLAPRGIYTSGKGTSGVGLTAAAVRDEFGGWSLEAGALVLGDKGNVCVDELDKMREEDRSAIHEALEQQTISIAKAGIMATLNSRCSVLAAANPKFGRFDSYKSIAEQIDLPSTILSRFDLIFVVEDKPDEEKDRELARHILKTHKEDHMPFEIDPELLRKYIAYARKNVRPVLTDEAMQVLEDFYVSMRASAADEDSPVPITARQLEALVRLSEASAKIKLKEHVEAEDARKAIKLSQACLKQVGYDPETGKIDIDKVEGRTPKSERDKFRLLLELIKEYEDDYGGRAPTNILITEMMDRYNVSEEKVEELIRILKDKGAIFEPARGYLKIV
With B1, the “stoichiometry N” value came out at 12 in data set [1] and 14 in data set [2].
